Assay results published in patent publication US20230055408A1 (JIANGSU HENGRUI MEDICINE, published 2023).

B1: mAb63 (antibody, V domains shown)
VH: EVQLQQSGPELVKPGASVKMSCKASGYTFTDFYMNWVRQSHGKSLEWIGDIFPKNGNTDYNRKFKDKATLTVDKSSNTVYMEFRSLTLEDSAIYFCARSGYGNYVFDYWGQGTIFTVSS
VL: DVQMTQTPSALSASLGDRVTISCRTSQDINIYLNWYQQKPDGTVKLLIYYRSGLLSGVPSRFSGSGSGTDYSLTISNLEPEDIATYFCQQGNTLPPTFGGGTKLEIK
notes: Murine hybridoma antibody
B2: mAb103 (antibody, V domains shown)
VH: QIQLVQSGPELKKPGETVKISCKASGYTFTTYGVIWVKQAPGKGLKWMGWINTYSGVPTYADDFKGRFAFSLETSASTAFLQINNLKNEDTATYFCARKKTLTTVTPWFAYWGQGTLVTVSA
VL: DLVVTQSSSASFSLGASAKLTCTLSSQHSTYTIEWYQQQPLKPPKYVMELKKDGSHSTGDGIPDRFSGSSSGADRYLTISNIQPEDEAIYICGVGNTIKEQFVYVFGGGTKVTVL
notes: Murine hybridoma antibody

Experiments:
[1] = biological target: T1, monkey CEA expressed on CHO cell surface (cynomolgus monkey); experiment: FACS, cynoCEA-CHO cells
T1 construct: also called cynoCEA-CHO; monkey CEA proteins on the cell surface
T1 chain: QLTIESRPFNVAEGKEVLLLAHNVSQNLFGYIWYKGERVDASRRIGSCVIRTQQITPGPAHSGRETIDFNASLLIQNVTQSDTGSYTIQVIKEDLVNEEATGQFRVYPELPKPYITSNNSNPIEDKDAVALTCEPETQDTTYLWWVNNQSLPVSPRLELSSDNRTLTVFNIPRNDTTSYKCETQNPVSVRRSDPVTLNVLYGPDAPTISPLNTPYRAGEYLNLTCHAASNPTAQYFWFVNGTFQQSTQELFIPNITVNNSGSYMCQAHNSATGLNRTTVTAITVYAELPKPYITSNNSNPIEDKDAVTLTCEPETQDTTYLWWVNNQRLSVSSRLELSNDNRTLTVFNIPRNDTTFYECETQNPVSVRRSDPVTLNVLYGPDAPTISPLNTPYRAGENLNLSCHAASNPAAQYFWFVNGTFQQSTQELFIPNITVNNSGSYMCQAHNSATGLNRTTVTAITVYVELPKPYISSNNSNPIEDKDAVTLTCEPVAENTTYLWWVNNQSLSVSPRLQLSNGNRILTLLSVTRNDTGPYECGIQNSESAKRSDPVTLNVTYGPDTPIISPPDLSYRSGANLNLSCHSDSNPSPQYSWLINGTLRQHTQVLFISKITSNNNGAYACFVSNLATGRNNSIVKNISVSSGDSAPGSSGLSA

[2] = biological target: T2, human CEA protein on the cell surface (human, UniProt P06731 35-685); experiment: FACS, MKN45 cells, -/+ 5 ug/mL sCEA as competitor
T2 construct: whole, on cells; also called CEACAM-5; CD66e
T2 sequence (looked up): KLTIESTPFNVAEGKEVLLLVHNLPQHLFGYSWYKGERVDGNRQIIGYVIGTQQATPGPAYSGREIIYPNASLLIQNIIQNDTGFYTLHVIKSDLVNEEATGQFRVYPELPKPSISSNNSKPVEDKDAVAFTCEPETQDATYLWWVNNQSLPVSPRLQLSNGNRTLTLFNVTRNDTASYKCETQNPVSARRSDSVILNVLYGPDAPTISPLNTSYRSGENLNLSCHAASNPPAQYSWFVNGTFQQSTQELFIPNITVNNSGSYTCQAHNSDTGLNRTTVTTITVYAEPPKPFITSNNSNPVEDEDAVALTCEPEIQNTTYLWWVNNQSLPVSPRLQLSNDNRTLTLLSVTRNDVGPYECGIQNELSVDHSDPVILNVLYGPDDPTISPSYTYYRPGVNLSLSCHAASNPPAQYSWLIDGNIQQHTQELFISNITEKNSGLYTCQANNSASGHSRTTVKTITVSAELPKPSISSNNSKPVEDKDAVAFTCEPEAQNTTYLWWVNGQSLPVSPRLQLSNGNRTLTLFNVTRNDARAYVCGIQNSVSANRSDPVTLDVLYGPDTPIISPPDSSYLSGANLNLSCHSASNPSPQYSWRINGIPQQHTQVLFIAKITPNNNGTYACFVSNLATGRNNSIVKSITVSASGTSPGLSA
Experimental: The gradient-diluted antibody and the pre-incubated mixed solution of the antibody and sCEA was added into each well. The plate was incubated at 4° C. for 60 min and centrifuged, and the supernatant was removed. The cells were washed twice with pre-cooled PBS containing FBS at final concentration 10%. 50 μL of 1:200 diluted secondary antibody Alexa Fluor@488 goat anti-human IgG (H+L) (Lifetechologies, Cat #A11013) was added. […] The cells were washed twice with 250 μL of pre-cooled PBS with FBS at final concentration 10%. 100 μL of pre-cooled PBS was added to each well to resuspend the cells. The suspension was analyzed by a flow cytometer (FACS) (BD, FACSverse) for fluorescence signal values.

[3] = biological target: T2, human CEA protein on the cell surface; experiment: FACS, MKN45 cells
[4] = biological target: T3, human CEACAM1 expressed on CHO cell surface (human, UniProt P13688 35-526); experiment: FACS, CEACAM1-CHO cells
T3 construct: also called CEACAM1-CHO
T3 sequence: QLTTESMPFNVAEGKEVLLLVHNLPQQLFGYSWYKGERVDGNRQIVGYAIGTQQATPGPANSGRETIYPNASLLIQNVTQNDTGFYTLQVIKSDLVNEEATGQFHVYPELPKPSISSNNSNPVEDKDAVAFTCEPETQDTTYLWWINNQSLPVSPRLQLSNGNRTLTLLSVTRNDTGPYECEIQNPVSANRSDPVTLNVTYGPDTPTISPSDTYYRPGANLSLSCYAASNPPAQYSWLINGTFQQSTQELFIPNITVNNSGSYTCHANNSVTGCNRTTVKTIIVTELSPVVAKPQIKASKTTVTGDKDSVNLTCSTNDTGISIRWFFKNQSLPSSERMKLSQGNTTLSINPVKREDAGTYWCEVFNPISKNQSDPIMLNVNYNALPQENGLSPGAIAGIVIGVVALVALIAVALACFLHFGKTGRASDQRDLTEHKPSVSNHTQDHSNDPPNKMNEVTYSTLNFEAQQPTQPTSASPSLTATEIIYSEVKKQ

Row | Binder | EC50 [1] | maximum ratio of fluorescence signals (absence of sCEA / presence of sCEA) [2] | EC50 [3] | binding result [4]
1 | B1 | 2.88 nM | 1.43 | 3.62 nM | no binding
2 | B2 | 0.71 nM | 1.02 | 3.94 nM | no binding
